Test results from the Human Domainome abundance scans (Beltran et al. 2025).
± gives the uncertainty stated by the source.

B1: Friend leukemia integration 1 transcription factor, residues 116 to 197; numbered along this chain, Q01543 (parent)
chain: NMTTNERRVIVPADPTLWTQEHVRQWLEWAIKEYSLMEIDTSFFQNMDGKELCKMNKEDFLRATTLYNTEVLLSHLSYLRES

Variants of: B1
Assay: abundance fitness (aPCA) (normalised: wild type 0, dead -1); higher = more abundant; growth selection in yeast, the domain comes from the species named
Settings: Homo sapiens

Q: Which abundance fitness does the source give for NMTTNERRVIVPADPTLWTQEHVRQWLEWAIKEYSLMEIDTSFFQNMDGKELCKMNKNDFLRATTLYNTEVLLSHLSYLRES [E58N] here?
A: Its abundance fitness is 0.048 ± 0.32.

Q: With NMTTNERRVIVPADPTLWTQEHVRQWLEWAIKEYSLMEIDTSFFQNMDGKELCKMNKVDFLRATTLYNTEVLLSHLSYLRES [E58V] as the variant, how does the abundance fitness read?
A: The abundance fitness was -0.17 ± 0.077.

Q: Which abundance fitness does the source give for NMTTNERRVIVPADPTLWTQEHVRQWLEWAIKEYSLMEIDTSFFQNMDGKELCKMNKWDFLRATTLYNTEVLLSHLSYLRES [E58W] here?
A: Its abundance fitness is -0.153 ± 0.057.

Q: Which abundance fitness does the source give for NMTTNERRVIVPADPTLWTQEHVRQWLEWAIKEYSLMEIDTSFFQNMDGKELCKMNKEKFLRATTLYNTEVLLSHLSYLRES [D59K] here?
A: Its abundance fitness is -0.052 ± 0.13.

Q: Which abundance fitness does the source give for NMTTNERRVIVPADPTLWTQEHVRQWLEWAIKEYSLMEIDTSFFQNMDGKELCKMNKEYFLRATTLYNTEVLLSHLSYLRES [D59Y] here?
A: The abundance fitness was -0.045 ± 0.21.

Q: For NMTTNERRVIVPADPTLWTQEHVRQWLEWAIKEYSLMEIDTSFFQNMDGKELCKMNKESFLRATTLYNTEVLLSHLSYLRES [D59S], which abundance fitness is on record?
A: Its abundance fitness is -0.126 ± 0.085.

Q: With NMTTNERRVIVPADPTLWTQEHVRQWLEWAIKEYSLMEIDTSFFQNMDGKELCKMNKEQFLRATTLYNTEVLLSHLSYLRES [D59Q] as the variant, how does the abundance fitness read?
A: Its abundance fitness is -0.087 ± 0.068.

Q: Which abundance fitness does the source give for NMTTNERRVIVPADPTLWTQEHVRQWLEWAIKEYSLMEIDTSFFQNMDGKELCKMNKEPFLRATTLYNTEVLLSHLSYLRES [D59P] here?
A: Its abundance fitness is -0.882 ± 0.14.

Q: For NMTTNERRVIVPADPTLWTQEHVRQWLEWAIKEYSLMEIDTSFFQNMDGKELCKMNKECFLRATTLYNTEVLLSHLSYLRES [D59C], which abundance fitness is on record?
A: Its abundance fitness is -0.046 ± 0.11.

Q: With NMTTNERRVIVPADPTLWTQEHVRQWLEWAIKEYSLMEIDTSFFQNMDGKELCKMNKETFLRATTLYNTEVLLSHLSYLRES [D59T] as the variant, how does the abundance fitness read?
A: Its abundance fitness is -0.189 ± 0.086.

Q: For NMTTNERRVIVPADPTLWTQEHVRQWLEWAIKEYSLMEIDTSFFQNMDGKELCKMNKEGFLRATTLYNTEVLLSHLSYLRES [D59G], which abundance fitness is on record?
A: Its abundance fitness is -0.058 ± 0.075.

Q: For NMTTNERRVIVPADPTLWTQEHVRQWLEWAIKEYSLMEIDTSFFQNMDGKELCKMNKEWFLRATTLYNTEVLLSHLSYLRES [D59W], which abundance fitness is on record?
A: Its abundance fitness is -0.106 ± 0.067.

Q: Which abundance fitness does the source give for NMTTNERRVIVPADPTLWTQEHVRQWLEWAIKEYSLMEIDTSFFQNMDGKELCKMNKEHFLRATTLYNTEVLLSHLSYLRES [D59H] here?
A: The abundance fitness was -0.177 ± 0.23.

Q: Which abundance fitness does the source give for NMTTNERRVIVPADPTLWTQEHVRQWLEWAIKEYSLMEIDTSFFQNMDGKELCKMNKEMFLRATTLYNTEVLLSHLSYLRES [D59M] here?
A: The abundance fitness was -0.17 ± 0.076.

Q: Which abundance fitness does the source give for NMTTNERRVIVPADPTLWTQEHVRQWLEWAIKEYSLMEIDTSFFQNMDGKELCKMNKEVFLRATTLYNTEVLLSHLSYLRES [D59V] here?
A: Its abundance fitness is -0.211 ± 0.071.

Q: For NMTTNERRVIVPADPTLWTQEHVRQWLEWAIKEYSLMEIDTSFFQNMDGKELCKMNKEEFLRATTLYNTEVLLSHLSYLRES [D59E], which abundance fitness is on record?
A: The abundance fitness was -0.184 ± 0.1.

Q: With NMTTNERRVIVPADPTLWTQEHVRQWLEWAIKEYSLMEIDTSFFQNMDGKELCKMNKERFLRATTLYNTEVLLSHLSYLRES [D59R] as the variant, how does the abundance fitness read?
A: The abundance fitness was -0.327 ± 0.066.

Q: Which abundance fitness does the source give for NMTTNERRVIVPADPTLWTQEHVRQWLEWAIKEYSLMEIDTSFFQNMDGKELCKMNKEFFLRATTLYNTEVLLSHLSYLRES [D59F] here?
A: The abundance fitness was -0.144 ± 0.16.

Q: Which abundance fitness does the source give for NMTTNERRVIVPADPTLWTQEHVRQWLEWAIKEYSLMEIDTSFFQNMDGKELCKMNKEAFLRATTLYNTEVLLSHLSYLRES [D59A] here?
A: Its abundance fitness is -0.035 ± 0.084.

Q: For NMTTNERRVIVPADPTLWTQEHVRQWLEWAIKEYSLMEIDTSFFQNMDGKELCKMNKEIFLRATTLYNTEVLLSHLSYLRES [D59I], which abundance fitness is on record?
A: Its abundance fitness is -0.607 ± 0.31.

Q: With NMTTNERRVIVPADPTLWTQEHVRQWLEWAIKEYSLMEIDTSFFQNMDGKELCKMNKEDSLRATTLYNTEVLLSHLSYLRES [F60S] as the variant, how does the abundance fitness read?
A: The abundance fitness was -0.881 ± 0.43.

Q: For NMTTNERRVIVPADPTLWTQEHVRQWLEWAIKEYSLMEIDTSFFQNMDGKELCKMNKEDKLRATTLYNTEVLLSHLSYLRES [F60K], which abundance fitness is on record?
A: Its abundance fitness is -0.801 ± 0.22.

Q: With NMTTNERRVIVPADPTLWTQEHVRQWLEWAIKEYSLMEIDTSFFQNMDGKELCKMNKEDWLRATTLYNTEVLLSHLSYLRES [F60W] as the variant, how does the abundance fitness read?
A: Its abundance fitness is -0.114 ± 0.08.

Q: With NMTTNERRVIVPADPTLWTQEHVRQWLEWAIKEYSLMEIDTSFFQNMDGKELCKMNKEDMLRATTLYNTEVLLSHLSYLRES [F60M] as the variant, how does the abundance fitness read?
A: The abundance fitness was -0.277 ± 0.12.

Q: For NMTTNERRVIVPADPTLWTQEHVRQWLEWAIKEYSLMEIDTSFFQNMDGKELCKMNKEDLLRATTLYNTEVLLSHLSYLRES [F60L], which abundance fitness is on record?
A: The abundance fitness was -0.116 ± 0.06.

Q: With NMTTNERRVIVPADPTLWTQEHVRQWLEWAIKEYSLMEIDTSFFQNMDGKELCKMNKEDYLRATTLYNTEVLLSHLSYLRES [F60Y] as the variant, how does the abundance fitness read?
A: Its abundance fitness is 0.152 ± 0.16.

Q: With NMTTNERRVIVPADPTLWTQEHVRQWLEWAIKEYSLMEIDTSFFQNMDGKELCKMNKEDGLRATTLYNTEVLLSHLSYLRES [F60G] as the variant, how does the abundance fitness read?
A: The abundance fitness was -1.1 ± 0.28.

Q: Which abundance fitness does the source give for NMTTNERRVIVPADPTLWTQEHVRQWLEWAIKEYSLMEIDTSFFQNMDGKELCKMNKEDTLRATTLYNTEVLLSHLSYLRES [F60T] here?
A: The abundance fitness was -0.918 ± 0.26.

Q: With NMTTNERRVIVPADPTLWTQEHVRQWLEWAIKEYSLMEIDTSFFQNMDGKELCKMNKEDPLRATTLYNTEVLLSHLSYLRES [F60P] as the variant, how does the abundance fitness read?
A: The abundance fitness was -0.921 ± 0.11.

Q: Which abundance fitness does the source give for NMTTNERRVIVPADPTLWTQEHVRQWLEWAIKEYSLMEIDTSFFQNMDGKELCKMNKEDQLRATTLYNTEVLLSHLSYLRES [F60Q] here?
A: The abundance fitness was -0.938 ± 0.35.

Q: For NMTTNERRVIVPADPTLWTQEHVRQWLEWAIKEYSLMEIDTSFFQNMDGKELCKMNKEDALRATTLYNTEVLLSHLSYLRES [F60A], which abundance fitness is on record?
A: Its abundance fitness is -0.75 ± 0.17.

Q: Which abundance fitness does the source give for NMTTNERRVIVPADPTLWTQEHVRQWLEWAIKEYSLMEIDTSFFQNMDGKELCKMNKEDVLRATTLYNTEVLLSHLSYLRES [F60V] here?
A: Its abundance fitness is -0.433 ± 0.089.

Q: With NMTTNERRVIVPADPTLWTQEHVRQWLEWAIKEYSLMEIDTSFFQNMDGKELCKMNKEDRLRATTLYNTEVLLSHLSYLRES [F60R] as the variant, how does the abundance fitness read?
A: Its abundance fitness is -1 ± 0.17.

Q: With NMTTNERRVIVPADPTLWTQEHVRQWLEWAIKEYSLMEIDTSFFQNMDGKELCKMNKEDCLRATTLYNTEVLLSHLSYLRES [F60C] as the variant, how does the abundance fitness read?
A: The abundance fitness was -0.545 ± 0.21.
